In the series the test system is Saccharomyces cerevisiae. Briefly: transcriptional activation domain activity (GFP:mCherry ratio, weighted mean of sorted bins, harmonized to initial dataset scale) (arbitrary fluorescence ratio units); higher = stronger transcriptional activation. The conditions noted are these: beta-estradiol 1 µM; induction time 4 h. Summed up:
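Protein tiles carrying barcodes and fused to an estradiol-inducible synthetic transcription factor were placed at the URA3 locus of yeast diploids with a GFP reporter. Following 4 hours at 30 °C in SC with 1 uM beta-estradiol, cells were sorted into 8 GFP:mCherry bins, barcodes were sequenced, and tiles with fewer than 50 reads were discarded. Activation activity is given as the read-weighted mean of bin median fluorescence, averaged across barcodes and linearly mapped to the initial dataset scale.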

In the case of “NLSLQEIVGILLRANAFRPMCKNCEHLRDKVGAHIVDCACFEYWLQLGLFIAP”, the “transcriptional activation domain activity” value worked out at 47000.

As to “NLSPLVLPLWVQLNIYFGIVFLWILAPLVFYYNVWNAQSFPFLSNSIFQLLPN”, the “transcriptional activation domain activity” value was found to be 64600.

“NLVRCYYYYGYFGLQSCMVHVFLWFMWWIFLLSSRPLQSTPLSIIWRIILYQA”: the “transcriptional activation domain activity” value came to 29700.

In the case of “NLYGNDEEVLFYEDNYNPKMQWSLQDNSAAINNEDARAIFNNEFDSDDDDISD”, the “transcriptional activation domain activity” value came out at 86600.

As to “NMDQLDSVHNLNDDDLQQLLEDLGNIDHSDEKLWKEITDQAMWLGNTMDPTAA”, the “transcriptional activation domain activity” value worked out at 149000.

On to “NMGEQQKFTSPQHIVHKAKFLSNAADSEYSILSNIIYQDTLSNKIPIDILYSN”, for which the “transcriptional activation domain activity” value is 76900.

Turning to “NMMLYLLKGLPALSMSDPASITRFIKLVDELLYYAYEAERRSPLPTSHPNLVR”, the “transcriptional activation domain activity” value amounted to 65700.

Turning to “NMSPNNDDNSIDTASTNTTNRKKNIDENIKNNNDIINDIIFNTNLANNLSNYN”, the “transcriptional activation domain activity” value is 51000.

As to “NNCVGYFNYCHFIRLIVYANITTIYIFVLLCCRAHQIIFIQSASLEVGFLCVN”, the “transcriptional activation domain activity” value was 66500.

Regarding “NNETETATKARRKKQAPKAAVEGSEDYESETATKAVAKKETKKKPIQKEVLVP”, the “transcriptional activation domain activity” value is less than 6570.

For “NNGKGQGKRRASSSALAAEKMVEKEAWLRSPKAVCTLSIAVMRSALHLMNAHL”, the “transcriptional activation domain activity” value turned out to be 67700.

On to “NNIISNRKQASKEKRKIPRHIQTIDEKLINDSNYLAFLKFDDLENEKFHSSAS”, for which the “transcriptional activation domain activity” value was determined as 56600.

As for “NNLLELITDIIIALDMNFVNCMTCVDDDEKALMTLRICEYFIDRLVRTIMVAT”, the “transcriptional activation domain activity” value was determined as 51300.

Consider “NNLNITGYEWISSELRDDALLSAVTLQGHHLGHTQPQEISLEENSNVVSGEEH”, for which the “transcriptional activation domain activity” value was found to be 59600.

With “NNNSRSTEDSEDDLAIVGHGTGVERLGGLDALILRQRLLALLIRVAEALPEDF”, the “transcriptional activation domain activity” value was 15200.

Consider “NNNYNNVSGKNNNNNNITNNSNNNHNNNNNDNNNNNNNNNNNNNNNNNSGNSS”, for which the “transcriptional activation domain activity” value is 49500.

As to “NNPDAKKARACESCRQLKVKCEPDADNPDGPCRRCAKAGRACVVTQPTRKRQK”, the “transcriptional activation domain activity” value amounted to 38000.

As to “NNSINATPIVDNSSGSQLPNGFDRGQANNTPFPGYFGGLDLFDYDFLFGNDFA”, the “transcriptional activation domain activity” value was determined as 133000.

Consider “NNTNNASPATSTVSLQLPNLPDQNSLTPNAQNNTVTLRKGFHVLLVEDDAVSI”, for which the “transcriptional activation domain activity” value turned out to be 23700.

With “NNTTSLGNAYGVCVMFVTFFDSCMVSLAALIVWRLPYYVVFLPWLVFACLDGV”, the “transcriptional activation domain activity” value stood at 52100.

For “NPERRTGGRGGEGEKGRRREERDAGNRRRGGRNRAQRPKKGRRREGGRRGRGR”, the “transcriptional activation domain activity” value was determined as 48800.

As for “NPIIRVRGIGLSLTSICFLHCYWILAQVVYPIGQSLPVILAYDIQYFFMGLWF”, the “transcriptional activation domain activity” value was determined as 56900.

“NPLIIYSSQYSVWTMSFSLFFCVFWFLMAGCNFVRPSALHRVYSLIWMFILGW”: the “transcriptional activation domain activity” value is 51800.

Regarding “NPLPPKNNGQAAYKETDGIRIKDRRVLVDVERGRTVKGWKPRRFGGGLGGRGY”, the “transcriptional activation domain activity” value was 47500.

Turning to “NPMTFMGSTQRLAAIRNLRSNPKFLFVHLPNILSFLCIIVGVVWLLLLPLNEY”, the “transcriptional activation domain activity” value amounted to 33900.

As to “NPPIPVIPADVDRSKIPKCKHIGSRLRHFDDDLGYYLVQVCINLLQRIWKIFY”, the “transcriptional activation domain activity” value came to 37200.

Take “NPPSWHHTLVFWGGKLFFCFYRIILPAYLIGWARTLLYLTLSDLVSSYWLALT”: the “transcriptional activation domain activity” value came out at 51300.

“NPQLFLLGGCLTLVHLLFSSLWLWLVSILFAHDREYPSFVLLSYFMIFYFWTS”: the “transcriptional activation domain activity” value was 54000.

On to “NPSSAPAQTATTAASGTPSLFGSKPAQATGAPSSLFGGQPAAASTGASTQATP”, for which the “transcriptional activation domain activity” value turned out to be 24200.

Regarding “NPTDTILILATSLPTVSTFFINYLLLQGLIGSAIELTQAYRLLWNIVIVRWFA”, the “transcriptional activation domain activity” value came out at 54500.

Turning to “NQAQPSTSGGFGQPSAFGSATPSSSAFGGGAASTPTQPSAFGASTTPAAAPTA”, the “transcriptional activation domain activity” value is 8250.

With “NQFSKPQVWSVGVFWWSIWLSCVWLGWWLCRLASFLAPRVLKFTIAIWMLVIY”, the “transcriptional activation domain activity” value came to 40800.

Turning to “NQGSGSKTGGEVDLVGEREEVMRSVHDSRAQLSEDYEYERRNISLAVPLGRGQ”, the “transcriptional activation domain activity” value came to 41000.

As to “NQLAEAHALALLHLEQRLNIAIELPIQKFILSHLPWLMPVLAKIYLSHIIVGV”, the “transcriptional activation domain activity” value was determined as 57100.

With “NQLHRPPPEILKLFEASVRFEMQIRRLIAKDWLCVATWWLLKARATLANCNRH”, the “transcriptional activation domain activity” value turned out to be 69100.

On to “NQQPVFRAKYLLRQLFHLCNRTEHELRTLWTPAMVVLVARRLFDSIHPALGSL”, for which the “transcriptional activation domain activity” value is 58300.

In the case of “NQRLREDGVDEIELDIISKLHPSRKDTAPRDIKPIPASKRGEISSKFEKLHEQ”, the “transcriptional activation domain activity” value is less than 6570.

For “NRKTIGKQDPYCAARLGKEAKKTDTDRRGGQTPRWDQELRYTVHDSPDYYQLK”, the “transcriptional activation domain activity” value came to 33300.

“NRKTIGKQDPYCAARLGKEAKKTETDRRGGQTPRWDQELRFTVHDSADYYQLK”: the “transcriptional activation domain activity” value turned out to be 44000.

Turning to “NRKTIGKQDPYCAARLGKEAKKTETDRRGGQTPRWDQELRYTVHDSPDYYQLK”, the “transcriptional activation domain activity” value was determined as 31200.

For “NRKTIGKQDPYCAARLGKEAKKTETDRRGGQTPRWDQEMRFTVHDSPDYYQLK”, the “transcriptional activation domain activity” value was found to be 21000.

With “NRNQDAAEPSAAASSSAAAPAETPARGGNRQNDGANNQGGNNQNNGGNNRQQE”, the “transcriptional activation domain activity” value is 41100.

Regarding “NRPGQKSIQVLNQYIGIDIGKCYLCGRLCVNLSYVCWSSPQLLYNCRMVMITR”, the “transcriptional activation domain activity” value amounted to 41000.

Turning to “NRRDASPEPHHKGKGKGKKNNRREAEADAEIEVREPHHKGKGKGKKNNAREAE”, the “transcriptional activation domain activity” value was determined as 21700.

For the sequence “NRSDEPELDVKELNRHVNADNLSDLQLDDSQKMGYVYKCLGAGIHLLRLSLRL”, the “transcriptional activation domain activity” value amounted to 39000.

Regarding “NRTLSTKDLIVLRLCSSFFAYFIISLFYCLMNLAFQIVVDRKFGQAGFIVFWM”, the “transcriptional activation domain activity” value was 62100.

“NRVIGVQGKNQEGACYEKLSPSSTSVSVGMDFCSLENFVTAESLPDLLNLFWE”: the “transcriptional activation domain activity” value stood at 111000.

Take “NRWMMATFMSGCVGALVYFFYKLVKVVMLKSTPSFVSIWKSLTTFSIIAIFLL”: the “transcriptional activation domain activity” value came out at 37200.

For “NSFPKECEVVHEELRKLTHLVSALPREGLLYHGRLILRYLETVVCACLIMFDG”, the “transcriptional activation domain activity” value was found to be 71100.

For “NSGDEGDAGAAEVEAPKSKKKRGRAAKEEDDDEETPAPVPKKARGRAKKATKE”, the “transcriptional activation domain activity” value was 23700.

Consider “NSIIPFFRFLGCIVLSGAFYFYIFFYAFLLCLFLIYFFFHGSKLGFFHFIFFP”, for which the “transcriptional activation domain activity” value came to 40600.

Regarding “NSLKGMAVDFRWWLLAHKKRPLREVNLILQLDSLTEVIKLACVSPKLSFLCIM”, the “transcriptional activation domain activity” value was found to be 71000.

For the sequence “NSLRNLFDLVGCSSLCSSSQKRGFVGRLVVDFASCAWPPVIVILLIWISLFWW”, the “transcriptional activation domain activity” value was 39200.

As for “NSLYLLPTAMTGEKPVADPLTLIRYILVWFPHIWCVICIHCHWPYFLFLNLTD”, the “transcriptional activation domain activity” value stood at 78400.

As for “NSSEEEDRNRRERKRKREKEREKKKESRRHRSRSRRSKEVEDDDEKDRKRHRR”, the “transcriptional activation domain activity” value was found to be 14500.

For “NSSNNNNNNNIISNRKQASKEKRKIPRHIQTIDEKLINDSNYLAFLKFDDLEN”, the “transcriptional activation domain activity” value was found to be 83500.

For the sequence “NSSSNNNVSTVPSSMMHSSTLNGTSGLGGDNDDNMLALSLATLANSATASPRL”, the “transcriptional activation domain activity” value amounted to 27900.

In the case of “NSSVYETVTRNLHDDLLGGSLNLKVILEMLLAHVIVNPSLVLEPAASLLRRNG”, the “transcriptional activation domain activity” value came to 58200.

Take “NSTIHNLFEVVLLPDLCGFCCFSMRFVVLIDLIGTLTLPVSVVYLVYLIYVIA”: the “transcriptional activation domain activity” value amounted to 46800.

“NSTIHNLLELVLLPELCGFCCFSMRFVVMIDLIGTLTLPSSVVYLVYLIYVVI”: the “transcriptional activation domain activity” value was 56700.

For “NSTIHNLLEVVLLPDLCGFCCFSMRFVVLLDLIGTLTLPVTCLYLIYLIYVIA”, the “transcriptional activation domain activity” value turned out to be 52100.

Turning to “NSTIPLDFMPRDALHGFDWSEEDDMSDGLPFLKTDPNNNGFFGDGSLLCILRS”, the “transcriptional activation domain activity” value came to 109000.

Take “NSTPAKVEEEAEAKPEEAKPEGEEVAKEEEEKKDEEPKPAIGDVVPDAVAVGQ”: the “transcriptional activation domain activity” value was determined as 25300.

As to “NSTVHNLIELIPLQQLCGFCCFSMRFVVFLDLLSTVVQPVIVGYIVYLIVILT”, the “transcriptional activation domain activity” value was 60200.

In the case of “NSVPGSPETPTSSSLDGSRETGYLRVRVVSAKDLAARMRSRTATCSASAGSPL”, the “transcriptional activation domain activity” value worked out at 42100.

Turning to “NSWLCGFQGIALMYLVLLLLCFGVLLIANLHFLSVYRSTWLQIHMTPMIVLSF”, the “transcriptional activation domain activity” value stood at 57400.

In the case of “NTCCCFFVCSFPSSKQKTLGALREGSWTFFFCFFLFFFLFFLVFFCFFLFCFF”, the “transcriptional activation domain activity” value is 24000.

“NTDTYILFLFPFFWASNWFYTYQQNCYQLFYFNLRGRTFTNLWYWLAQIFGAL”: the “transcriptional activation domain activity” value was 72900.

Regarding “NTLDVSEGNQVINESASTNTSSALNCQSYTNNQDIMDILFQVTSGSVWDEFFV”, the “transcriptional activation domain activity” value was 149000.

As for “NTLSRTKAYMTFILAFVAITSIVRFTGSTLYLIARFLLGKRAWITYLIYVYLY”, the “transcriptional activation domain activity” value was 52700.

As for “NTMQFSMNLGNSTVSGPFSGLVNGLTPKGTNMEPSLWASWSYYALWLPTWGTT”, the “transcriptional activation domain activity” value was 52100.

On to “NTPPAKKKRDGKKKAAAAGDMGEGEGGGKKVRKPRKDAGTKRGPNKRTAGATG”, for which the “transcriptional activation domain activity” value is 41100.

For “NTTTPDAAEGDAEGEDSASASGSGSEGKGGEGEEKTGKKGKKGRKGKLLQRLK”, the “transcriptional activation domain activity” value amounted to 29500.

As to “NTVWLILNDITIGIAFGTFLCENHLILAAYVNYTIEKLLIKEIQWILGWLDSW”, the “transcriptional activation domain activity” value turned out to be 84200.

These data come from the supplement of paper PMC12636428.
